To fix the notation:
B1: Pistol ribozyme (parent)
chain: GGGUCGUUGUUCCAUAAUCGCGUGGAUAUGGCACGCAAGUUUCUACCGGGCACCGUAAAUGUCCGACUGGAGCCGUUCGGGCGGCUAUAAACAGACCUCAGGCCCGAAGCGUGGCGGCACCUGCCGCCGGUGGUAAAAAAGAUCGGAAGAGCACACGUCU

Variants of B1 are the subject of this data set. Put plainly: aptazyme ON/OFF ratio, guanine; higher = stronger switching; co-transcriptional cleavage with and without guanine.
Turning to U8A U10C U11A C12U C13U, the “aptazyme ON/OFF ratio” value came out at 1.31.

As for U8A U10C U11A C12U C13G, the “aptazyme ON/OFF ratio” value was found to be 1.23. In the case of U8C G9A U10C U11C C12G C13U it was 1.16; in that of U8C G9A U10C U11C C12G C13G, 1.3. In the case of U8C G9A U10C U11C C12G C13A it was 1.24; in that of U8C G9A U10A U11G, 1.45. In the case of U8C G9A U10A U11C it was 1.05; in that of U8C G9A U10A U11A, 1.47. On to U8A U10C U11A C12G C13A, for which the “aptazyme ON/OFF ratio” value amounted to 1.15.

Turning to U8A U10C U11A C12G C13G, the “aptazyme ON/OFF ratio” value stood at 1.39.

With U8A U10C U11A C12G C13U, the “aptazyme ON/OFF ratio” value came to 1.34. In the case of U8C G9A U10A C13A it was 1.17; in that of U8C G9A U10A C13G, 1.05. Turning to U8C G9A U10A C13U, the “aptazyme ON/OFF ratio” value came out at 1.42. On to U8A U10G, for which the “aptazyme ON/OFF ratio” value came to 1.62. Take U8A U10C: the “aptazyme ON/OFF ratio” value was determined as 4.03. Under U8A U10C U11G C13U stands 1.19. Under U8A U10C U11G C13G stands 1.13. Take U8A U10C U11G C13A: the “aptazyme ON/OFF ratio” value was determined as 1.21.

With U8C C12U, the “aptazyme ON/OFF ratio” value is 1.49. Under U8C C12A stands 1.52; under U8C C12G, 1.38; under U8A U10G U11A C12U C13U, 1.31.

For the variant U8A U10G U11A C12U C13G, the “aptazyme ON/OFF ratio” value was found to be 1.35.

For the variant U8A U10G U11A C12U C13A, the “aptazyme ON/OFF ratio” value was 1.42. Under U8C G9A U10A C12U C13G stands 1.24.

As for U8C G9A U10A C12U C13A, the “aptazyme ON/OFF ratio” value was 1.16.

For U8C G9A U10A C12U C13U, the “aptazyme ON/OFF ratio” value turned out to be 1.33. Under U8C C12U C13U stands 1.28; under U8C C12U C13G, 1.39; under U8C C12U C13A, 1.26.

For the variant U8A U10G U11G C12U, the “aptazyme ON/OFF ratio” value is 1.48. In the case of U8A U10G U11G C12A it was 1.11; in that of U8A U10G U11G C12G, 1.23; in that of U8C G9A U10A U11A C12G C13G, 1.17.

For the variant U8C G9A U10A U11A C12G C13U, the “aptazyme ON/OFF ratio” value came to 1.21.

With U8C G9A U10A U11A C12G C13A, the “aptazyme ON/OFF ratio” value came to 1.15. For the variant U8A U10G U11C C12A C13A, the “aptazyme ON/OFF ratio” value came out at 1.26. As for U8A U10G U11C C12A C13U, the “aptazyme ON/OFF ratio” value is 1.21. Under U8A U10G U11C C12A C13G stands 1.14; under U8C G9A, 1.78; under U8C G9A U10C C12U, 1.95. In the case of U8C G9A U10C C12G, the “aptazyme ON/OFF ratio” value was found to be 1.24.

Take U8C G9A U10C C12A: the “aptazyme ON/OFF ratio” value was determined as 1.35.

Take U8C G9A C13A: the “aptazyme ON/OFF ratio” value was 1.22.

U8C G9A C13G: the “aptazyme ON/OFF ratio” value came to 1.07. U8C G9A C13U: the “aptazyme ON/OFF ratio” value stood at 1.43. For U8C G9A U10A U11C C13U, the “aptazyme ON/OFF ratio” value worked out at 1.06. For U8C G9A U10A U11C C13A, the “aptazyme ON/OFF ratio” value turned out to be 1.05. In the case of U8C G9A U10A U11C C13G it was 1.04.

In the case of U8A U11A C12A C13G, the “aptazyme ON/OFF ratio” value was 1.16. Under U8A U11A C12A C13A stands 1.15; under U8A U11A C12A C13U, 1.25; under U8A U10C U11C C13A, 1.01. Regarding U8A U10C U11C C13U, the “aptazyme ON/OFF ratio” value was found to be 1.02. Under U8A U10C U11C C13G stands 1.04. Under U8A U11G C12U C13A stands 1.14. In the case of U8A U11G C12U C13G it was 1.1; in that of U8A U11G C12U C13U, 1.11. Turning to U8C C12A C13U, the “aptazyme ON/OFF ratio” value amounted to 1.21. Under U8C C12A C13G stands 1.1. On to U8C C12A C13A, for which the “aptazyme ON/OFF ratio” value is 1.24. Take U8A U11A C13A: the “aptazyme ON/OFF ratio” value worked out at 1.19. Regarding U8A U11A C13G, the “aptazyme ON/OFF ratio” value was 1.05. Under U8A U11A C13U stands 1.15. As for U8A U10C U11A C12A C13A, the “aptazyme ON/OFF ratio” value was determined as 1.21. In the case of U8A U10C U11A C12A C13U it was 1.3.

For U8A U10C U11A C12A C13G, the “aptazyme ON/OFF ratio” value was 1.1. Turning to U8A U10C U11G C12U, the “aptazyme ON/OFF ratio” value turned out to be 1.37. Take U8A U10C U11G C12G: the “aptazyme ON/OFF ratio” value stood at 1.23. In the case of U8A U10C U11G C12A it was 1.09.

On to U8C G9A U10C U11G C12G C13U, for which the “aptazyme ON/OFF ratio” value turned out to be 1.14.

Regarding U8C G9A U10C U11G C12G C13A, the “aptazyme ON/OFF ratio” value is 1.42.

Consider U8C G9A U10C U11G C12G C13G, for which the “aptazyme ON/OFF ratio” value was 1.23. Turning to U8A U10G U11C C12U C13U, the “aptazyme ON/OFF ratio” value worked out at 1.2. In the case of U8A U10G U11C C12U C13A it was 1.3; in that of U8A U10G U11C C12U C13G, 1.27. On to U8C G9A U10A U11A C12A C13A, for which the “aptazyme ON/OFF ratio” value amounted to 1.15.

On to U8C G9A U10A U11A C12A C13U, for which the “aptazyme ON/OFF ratio” value was determined as 1.3. U8C G9A U10A U11A C12A C13G: the “aptazyme ON/OFF ratio” value came to 1.15.

For the variant U8C G9A U10A U11A C12U C13U, the “aptazyme ON/OFF ratio” value is 1.19. With U8C G9A U10A U11A C12U C13A, the “aptazyme ON/OFF ratio” value was 1.28. For the variant U8C G9A U10A U11A C12U C13G, the “aptazyme ON/OFF ratio” value is 1.18.

(Values after the RNAGym collection of RNA variant scans (doi:10.1021/acssynbio.7b00057).)
